From patent US20110312883A1 (NTF THERAPEUTICS, published 2011)
Residue numbers refer to the chain shown, from its start.

B1: V5-tagged wild-type neurturin (ligand)
chain: ARGKPIPNPLLGLDSTSGARLGARPCGLRELEVRVSELGLGYASDETVLFRYCAGACEAAARVYDLGLRRLRQRRRLRRERVRAQPCCRPTAYEDEVSFLDAHSRYHTVHELSARECACV
notes: Secreted from transiently transfected CHO cells and used as crude conditioned medium; also called NRTN WT; E779
B2: V5-tagged neurturin variant NV4 (ligand)
chain: B1 chain with R69A, R72Q, Q73G, R74Q, R75G, R76A, R78V, R79G, E80S
notes: Crude conditioned medium of transfected CHO cells; also called NRTN NV4; NV4 (from N4)
B3: V5-tagged neurturin variant NV3 (ligand)
chain: B1 chain with R70A, R72A, R74A, R76A, R79A
notes: Crude conditioned medium of transfected CHO cells; also called NRTN NV3; NV3 (from N3)
B4: V5-tagged neurturin variant NV2 (ligand)
chain: B1 chain with R72A, R79A, R81A
notes: Crude conditioned medium of transfected CHO cells; also called NRTN NV2; NV2 (from N2)
B5: V5-tagged neurturin variant NV1 (ligand)
chain: B1 chain with R70A, R74A, R76A
notes: Crude conditioned medium of transfected CHO cells; also called NRTN NV1; NV1 (from N1)
B6: NRTN WT (ligand)
mature neurturin monomer of the disulfide-linked homodimer: ARLGARPCGLRELEVRVSELGLGYASDETVLFRYCAGACEAAARVYDLGLRRLRQRRRLRRERVRAQPCCRPTAYEDEVSFLDAHSRYHTVHELSARECACV
notes: also called purified untagged mature wild type neurturin made by the same method as the variants
B7: neurturin variant N1 (untagged, purified) (ligand)
chain: B6 mature neurturin monomer of the disulfide-linked homodimer with R52A, R56A, R58A
notes: Dimeric protein; also called NRTN N1; neurturin mutant N1
B8: neurturin variant N3 (untagged, purified) (ligand)
chain: B6 mature neurturin monomer of the disulfide-linked homodimer with R52A, R54A, R56A, R58A, R61A
notes: Dimeric protein; also called NRTN N3; neurturin mutant N3
B9: neurturin variant N4 (untagged, purified) (ligand)
chain: B6 mature neurturin monomer of the disulfide-linked homodimer with R51A, R54Q, Q55G, R56Q, R57G, R58A, R60V, R61G, E62S
notes: Dimeric protein; also called NRTN N4; neurturin mutant N4
B10: neurturin variant N2 (untagged, purified) (ligand)
chain: B6 mature neurturin monomer of the disulfide-linked homodimer with R54A, R61A, R63A
notes: Dimeric protein; also called NRTN N2; neurturin mutant N2

Each binder was assayed against T1, recombinant human GFRα2-Fc chimera (R&D Systems) (human, UniProt O00451 22-441) (assay: precipitation from CHO medium with GFRα2-Fc and Protein G-Sepharose, western blot).
T1 construct: Bought reagent; also called GFRalpha2-Fc fusion protein; soluble recombinant GFRα2-Fc chimera; not shown: Fc portion of human IgG1
T1 sequence (looked up): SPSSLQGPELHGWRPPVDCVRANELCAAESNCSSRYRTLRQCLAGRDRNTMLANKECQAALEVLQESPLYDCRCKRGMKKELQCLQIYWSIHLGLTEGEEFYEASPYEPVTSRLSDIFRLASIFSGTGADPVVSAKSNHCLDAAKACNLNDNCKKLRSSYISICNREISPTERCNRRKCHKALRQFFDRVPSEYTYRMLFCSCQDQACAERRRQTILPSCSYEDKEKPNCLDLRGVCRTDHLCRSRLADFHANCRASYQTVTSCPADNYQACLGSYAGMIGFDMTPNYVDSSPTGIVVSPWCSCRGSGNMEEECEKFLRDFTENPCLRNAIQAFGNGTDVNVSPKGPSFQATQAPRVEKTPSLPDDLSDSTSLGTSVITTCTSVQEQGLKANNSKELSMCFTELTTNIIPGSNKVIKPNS
Procedure: An aliquot of each media (400 μl) was incubated with recombinant human GFRα2-Fc chimera (0.4 μg, R&D Systems), antibodies to the V5-epitope (0.4 μg, Invitrogen) or antibodies to NRTN (0.4 μg, R&D Systems) for 1 h at +4° C. with mixing. Protein G has a strong affinity for antibodies from mouse and goat as well as for the Fc portion of human IgG₁ in the recombinant GFRα2-Fc chimera. Therefore Protein G-Sepharose was added to the samples and the incubation was continued for 1 h at +4° C. with mixing. After pelleting, the samples were eluted from the protein G-Sepharose with reducing Laemmli buffer and loaded on SDS-PAGE. For Western blot analysis of the V5-tagged variants of NRTN, an anti-V5 antibody (Invitrogen) was used with samples loaded on SDS-PAGE under reducing conditions. For Western blot analysis of the untagged variants of NRTN, an anti-NRTN antibody (R&D Systems) was used with samples loaded on SDS-page under non-reducing conditions.

Binding result, binds:
B1
B2
B3
B4
B5

Each binder was assayed against T1, recombinant human GFRα2-Fc chimera (R&D …) (assay: capture on GFRα2-Fc held on Protein G spin column (after heparin column enrichment), 1.0 M NaCl wash, elution with 2.0 M MgCl2; eluate on non-reducing 15% SDS-PAGE, Coomassie stain).
Procedure: Media from NRTN-expressing CHO cells (QMCF Technology at Icosagen Ltd) was thawed at room temperature. HITRAP™ Heparin HP columns (1 ml, GE Healthcare) were equilibrated with 10 ml of 10 mM Hepes, pH 7.2 and 1-10 ml of undiluted media was applied with a syringe according to the manufacturer's instructions. The media was collected and run through the column a second time. The columns were washed with 10 ml of 0.2 M NaCl in 10 mM Hepes, pH 7.2. The NRTN enriched samples were eluted with 5×600 μl of 10 mM Hepes pH 7.2, 1.2 M NaCl. Fractions number two and three were collected and concentrated to a final volume of 50-65 μl, according to the manufacturer's instruction in AmiconUltra 0.5 ml 10K concentrators (Millipore). The samples were then diluted 1:10 with 10 mM Hepes pH 7.2 to a final concentration of NaCl around 120 mM. Soluble recombinant GFRα2-Fc chimera (10-200 μg, R&D Systems) was attached to Protein G HP SpinTrap columns (GE Healthcare) in PBS according to the manufacturer's instructions. The 1:10 diluted samples were added to the GFRα2 columns and incubated for at least one hour at +4° C. with mixing. The columns were first washed with 4×400 μl of cold 10 mM Hepes pH 7.2, 1.0 M NaCl and thereafter with 4×400 μl of cold 10 mM Hepes pH 7.2, 0.1 M NaCl. The NRTN samples were eluted with 5×200 μl of pre-warmed (25° C.) 10 mM Hepes pH 7.2, 2.0 M MgCl₂. The eluted fractions were immediately diluted (1:2) with 10 mM Hepes pH 7.2, 0.150 M NaCl and concentrated with AMICONULTRA™ 0.5 ml 10K concentrators. The samples were further diluted in the same buffer (1:2) and subsequently concentrated three times to yield a final concentration of around 125 mM MgCl₂, and 150 mM NaCl in 10 mM Hepes pH 7.2. Samples of the purified proteins as well as a commercially available batch of neurturin were analyzed using […], under non reducing conditions, and visualized via Coomassie staining.

Binding result, binds:
B6
B7
B8
B9
B10
